± gives the uncertainty stated by the source.

This series can be described thus: amyloid nucleation score (Sup35N fusion, yeast selection) (log enrichment); library NNK2; higher = more nucleation; inactive = no reads after selection. In short, it runs like this:
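After 24 hours of induction with 100 μM copper sulfate, psi-negative yeast expressing peptides of 20 random codons fused to Sup35N were grown for 7 days at 30°C on medium lacking adenine and uracil. Input and output plasmid inserts were sequenced with Illumina, and sequences with under 100 input reads were discarded. Scores for nucleation are the DiMSum log enrichment of output over input reads, centred on the mode score of non-aggregating sequences.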
Substance ALGSRINYQKGLMQNRTGKG registered an amyloid nucleation score of -0.649 ± 0.76.
Then ALIGLWVGKPFPGGMLVLFM, with 0.24 ± 0.3.
With ALILVAMSVFLSAGLRVMIK, the amyloid nucleation score entry is “inactive”.
The result for ALKFHGSNDSRFLI reads -0.756 ± 1.
ALNSPFMLQFLDWL: the amyloid nucleation score turned out to be 0.11 ± 0.76.
Take ALPAFELGEFNNADHSHDDN: the amyloid nucleation score is -0.464 ± 1.1.
The result for ALSSFIGVRNLQAQGHFTQI reads 0.638 ± 0.36.
ALYLL displayed an amyloid nucleation score of 0.154 ± 0.23.
The result for AMDASR reads 1.7 ± 0.12; that for AMERDYFLTVTCDRVKYLGE, 1.01 ± 0.4; that for AMFTSSMIRTLGCCSGSQTA, 4.14 ± 0.13.
The substance AMLLNILVPYVYSKTGRGPV registered an amyloid nucleation score of 1.88 ± 0.33.
With AMNVDIN, the amyloid nucleation score was -0.641 ± 0.24.
AMRWFGKYSRFWNGYIRNWI showed an amyloid nucleation score of -0.193 ± 0.76.
AMYFRVVLA showed an amyloid nucleation score of 1.25 ± 0.31.
In the case of ANAAV, the amyloid nucleation score was determined as 1.12 ± 0.61.
The result for ANCATSVLCCSGCV reads 0.878 ± 0.14.
The result for ANGVSILDFRKHATFWWWET reads -0.103 ± 0.29; that for ANLCSAT, -0.799 ± 0.44; that for ANLRLYICWGFDKSVINIKS, 6.908 ± 0.038.
ANQSVYLAEAVYQAGIEGRD registered an amyloid nucleation score of 0.358 ± 0.24.
Then ANRNRYNLHWDMG, with 0.946 ± 0.6; and ANSMLVF, with -0.573 ± 0.4; and ANSVCDNVVTVSLLRLYMVL, with 5.39 ± 0.071.
On to ANSYYIVYLGPHHAYFFILK, for which the amyloid nucleation score is 3.75 ± 0.12.
As to ANTCVPPLLRMFPLRGRTHI, the amyloid nucleation score was -0.184 ± 1.1.
The result for ANTWVKHTLCVGRLQGDWGI reads -0.029 ± 0.42; that for APNMKSNLYFPEVRLNEGSR, 0.714 ± 0.53; that for APSLIYFNVST, 3.75 ± 0.13.
Consider AQFVKWAVNLLGSRYSWYEQ, for which the amyloid nucleation score result is “inactive”.
Then AQGSRDSNRRVEASACY, with -0.09 ± 0.63; and ARDRNSFGLDCAVFMSYFTT, with 3.34 ± 0.11; and ARKYLRCGSACVKVEYF, with 3.51 ± 0.047.
The result for ARNRSSIKWGRGSDYGFTEL reads 0.451 ± 0.65; that for ARSDLNMRTFFVWASLFVLS, 4.43 ± 0.056; that for ARVALRLIYDMDRVLWPDSY, 5 ± 0.067.
ARYLITTAQVPVLGPRSQHK gave an amyloid nucleation score of 0.073 ± 0.41.
The result for ASAEQRNLCIEFASDQLYVI reads -0.478 ± 0.38; that for ASAYSPASRRSTDMADALV, 0.496 ± 0.31.
As to ASDWLNRNSNS, the amyloid nucleation score was -0.211 ± 0.28.
As for ASGVFSLAEYNFFGISKKSF, the amyloid nucleation score entry is “inactive”.
Then ASIPINHPHRVRLNTSYECI, with -0.657 ± 0.56; and ASMKGYV, with 0.148 ± 0.5; and ASTSLMVN, with 0.052 ± 0.46.
The result for ATQRHVSTGKSGSN reads 0.606 ± 0.8; that for ATQVMMGVAEYACLYNCTHM, 8.223 ± 0.078.
In the case of ATRCFSNWDTSACYMWKC, the amyloid nucleation score is 8.074 ± 0.061.
The result for ATVRLHNGFG reads 0.127 ± 0.31; that for AVALYVSDSQDHPGNRNVLV, 2.45 ± 0.099; that for AVCVENLCPWV, 1.82 ± 0.11.
As for AVEAYNMSNYLLRYISGSV, the amyloid nucleation score was -0.109 ± 0.65.
On to AVFTIFALVRS, for which the amyloid nucleation score was found to be 1.08 ± 0.51.
The result for AVFVPNSNALVLTVLT reads 0.603 ± 0.51; that for AVKCGNGSEF, -0.066 ± 0.45; that for AVMAISMRS, 0.514 ± 0.56.
Then AVMMCIASIDFRVWYLG, with 1.53 ± 0.15.
The result for AVNCH reads 0.748 ± 0.19; that for AVQAIITHQTLGKQVFFWFE, 7.85 ± 0.076; that for AVSIGLYFVQASP, 9.658 ± 0.052.
AVSVAVLRHLEVRRKVWS: the amyloid nucleation score is 1.66 ± 0.15.
The result for AWCFLYLLWLPGIQN reads -0.226 ± 1.1; that for AWESIAFPCKVIYCYLRWTL, “inactive”; that for AWFMCSFECVTRSVKHALR, 0.523 ± 0.64.
Then AWHSRTFVSLSLGRTSVEVL, with -0.242 ± 0.45; and AWLWKMFNGTCNRWYINRPL, with -0.81 ± 0.76; and AWSLDVTTM, with 0.051 ± 0.27.
For the substance AWSYVQFRTFYALTVPTSAL, the amyloid nucleation score was -0.125 ± 0.38.
AYKCFGVLCFRRNRSGKEGL displayed an amyloid nucleation score of -0.318 ± 0.76.
Then AYLLWVRYIYEHDSTIGWLI, with “inactive”; and AYSGIECGVVQWSFYRRKLI, with “inactive”; and AYSKTNVFNSWWLVKCLFLF, with “inactive”.
The result for AYVRNAIGTMFLLALSHRGD reads -0.345 ± 0.48; that for CAFRASFLLT, 0.04 ± 0.34; that for CAIKFPYQFTYLNINNQ, 6.229 ± 0.044.
In turn, CAINPKVKRSFLVI came in with an amyloid nucleation score of -1.73 ± 1.1.
The result for CAISYSFPGIFRQWCVFPDG reads -0.593 ± 0.33; that for CAPVTLVFRYAGIYMQLFIW, “inactive”.
CASRC: the amyloid nucleation score stood at 4.11 ± 0.06.
Then CCAGWYSGEEGRMGSRL, with 0.511 ± 0.18; and CCFVVISYDRNSQLH, with 9.791 ± 0.043; and CCPASYMQYEFLGRMSGGCW, with 2.82 ± 0.15.
The result for CCRNLRDRLNW reads “inactive”; that for CCSIVSTYRKYLVNRTRWIF, -0.982 ± 0.42.
Turning to CCSVCFRRLLYLLSRR, the amyloid nucleation score stood at 6.9 ± 0.068.
As for CCVAGLFEWHWY, the amyloid nucleation score came out at 8.409 ± 0.081.
Regarding CCVDDRWVDARPWGSRNSRA, the amyloid nucleation score was 0.491 ± 0.57.
The result for CDFDIHERMCPYCYIIQVGD reads -0.081 ± 0.65; that for CDHVVVIIIVGWGAEGE, 0.512 ± 0.25; that for CDISRGLILYTHGLLFWTIR, “inactive”.
Then CDMFLSYLRT, with 1.74 ± 0.23.
The result for CDSWWYFSNKANSLWSKCSA reads -0.723 ± 0.35; that for CDVRMRVAGRAR, 3.19 ± 0.11.
CDYWYYIGRRNVEMEHRVTC registered an amyloid nucleation score of 0.148 ± 1.
Consider CEFLMLFREFLDW, for which the amyloid nucleation score was determined as 4.59 ± 0.055.
Consider CEFMCLQGSRDRIDFLHRSE, for which the amyloid nucleation score is -1 ± 0.34.
CELRIFTCHDSCAVLDRWME registered an amyloid nucleation score of 1.16 ± 0.18.
For the substance CEVSGYARWLGQHYWSAVRA, the amyloid nucleation score came to 1.69 ± 0.32.
The result for CFFLYIRHFAMYCA reads 1.65 ± 0.17; that for CFFPDSVTTELKKIKTL, -0.692 ± 0.41; that for CFGIILVQGYMHA, 3.6 ± 0.052.
Consider CFIENILRFGSW, for which the amyloid nucleation score was determined as 3.1 ± 0.052.
CFKDYQIGSCKQSL gave an amyloid nucleation score of -0.499 ± 0.76.
As for CFLGHGCILVGYLRDYRLLR, the amyloid nucleation score was found to be 0.759 ± 0.67.
The result for CFLTTYNRNYNLMRVFSIFR reads 1.43 ± 0.21; that for CFMDFQWHMRSHG, -0.265 ± 0.3.
Regarding CFPSILSRFINLRCPGRSSY, the amyloid nucleation score entry is “inactive”.
Turning to CFSKMFNV, the amyloid nucleation score is -1.03 ± 0.53.
Then CGARRGCDSWTSSTAGKSVG, with 1.16 ± 0.61.
Then CGFIVKTAWGLVLATLGATY, with 2.54 ± 0.11; and CGFSWCIDQLGTCLCKMVVV, with -0.269 ± 0.28; and CGLLGVPFTKLTMLISRRMT, with 0.286 ± 0.61.
Consider CGLLYREVSIGQGSPTGVRD, for which the amyloid nucleation score entry was “inactive”.
The result for CGLVLVIRVYITSLYNSRFM reads 1.49 ± 0.14; that for CGLWASNSSTFRDFESNESN, -0.51 ± 0.63.
Turning to CGMNGKTEGEWMGYRKDEGE, the amyloid nucleation score turned out to be 6.03 ± 0.077.
Take CGMRTEMTLGCLILAAGTWT: the amyloid nucleation score stood at 0.111 ± 0.5.
Then CGQFAYYGACDVGIFFRS, with 4.74 ± 0.037; and CGRWVSGAWDGCGCGLGVLG, with -0.305 ± 0.55.
Take CHHQRYGSGFRLRNSLTVGS: the amyloid nucleation score came to 0.015 ± 0.41.
The result for CHPLEMWFFFSLGGFGVSMT reads -1.54 ± 1.1.
Then CHQVI, with 0.383 ± 0.74; and CHRLVLQLI, with “inactive”; and CHSLRILRPRIYSVQVMLIG, with -0.01 ± 0.63.
As for CIAYRDSTAYHNMTRGTAMV, the amyloid nucleation score is 3.72 ± 0.043.
For CIDVRDTWNVPSVDYSMVLY, the amyloid nucleation score was -0.363 ± 1.1.
The substance CIEDRVCLDS came in with an amyloid nucleation score of 8.276 ± 0.041.
The result for CIFWLDYATFDTGLSLYMCE reads -0.094 ± 1; that for CIKALRVYFYEGFTSTR, -1.89 ± 1.1; that for CILRGLVASSNNSGSIGAMK, 0.361 ± 0.23.
The result for CINYG reads 0.96 ± 0.39; that for CIVMLRTIIQRSFNMSMTHY, 3.2 ± 0.058; that for CIYHGANRIYLSDVA, 0.381 ± 0.6.
Then CKIEGWCTGCGSRQLRARAE, with 1.09 ± 0.34; and CKWMLEENMGQEADSV, with -0.289 ± 0.21.
Consider CLAISWEGWSNSFGRYVVGW, for which the amyloid nucleation score amounted to 1.86 ± 0.1.
The result for CLCQIHSRSYPFIL reads 0.148 ± 1; that for CLGSLHNVLQALAMTEPSNY, 0.044 ± 0.79; that for CLKAFIWLRRLEGQI, 0.082 ± 1.1.
With CLKEMVKVCRGWWRANGSGR, the amyloid nucleation score was determined as 0.433 ± 0.46.
Then CLRGSR, with 0.03 ± 0.2.

(Values after the supplement of paper PMC12042874.)
